# Data taken from the Immune Epitope Database (IEDB).
# How the values were obtained:
# HLA-A*11:01 [1] = assay: IEDB peptide-MHC binding, purified MHC/direct/fluorescence; filed as Kd, often an IC50 or EC50 that approximates it; ≥ and ≤ were set here for values at or beyond the usual limits of such assays
# HLA-A*03:01 [2] = assay: as above
# HLA-A*31:01 [3] = assay: IEDB peptide-MHC binding, purified MHC/competitive/fluorescence; filed as Kd, often an IC50 or EC50 that approximates it; ≥ and ≤ were set here for values at or beyond the usual limits of such assays
# HLA-A*11:01 [4] = assay: IEDB peptide-MHC binding, purified MHC/competitive/fluorescence; ≥ and ≤ were set here for values at or beyond the usual limits of such assays; settings: source organism: Zaire ebolavirus
# HLA-B*15:01 [5] = assay: as above
# HLA-A*02:01 [6] = assay: as above
# HLA-A*03:01 [7] = assay: as above; settings: source organism: Zaire ebolavirus
# HLA-A*24:02 = assay: as above
# HLA-A*02:01 [8] = assay: IEDB peptide-MHC binding, purified MHC/competitive/fluorescence; filed as Kd, often an IC50 or EC50 that approximates it; ≥ and ≤ were set here for values at or beyond the usual limits of such assays; settings: source organism: Escherichia coli
# HLA-A*24:03 = assay: as above
# HLA-B*15:17 [9] = assay: IEDB peptide-MHC binding, purified MHC/direct/fluorescence; filed as Kd, often an IC50 or EC50 that approximates it; ≥ and ≤ were set here for values at or beyond the usual limits of such assays
# HLA-B*58:01 = assay: as above
# HLA-A*02:11 = assay: as above; settings: source organism: Bacillus cereus H3081.97
# HLA-A*03:01 [10] = assay: IEDB peptide-MHC binding, purified MHC/competitive/fluorescence; filed as Kd, often an IC50 or EC50 that approximates it; ≥ and ≤ were set here for values at or beyond the usual limits of such assays
# HLA-A*01:01 [11] = assay: as above
# HLA-B*15:17 [12] = assay: as above; settings: source organism: Burkholderia pseudomallei K96243
# HLA-B*18:01 [13] = assay: as above; settings: source organism: Burkholderia pseudomallei K96243
# HLA-A*26:01 [14] = assay: as above; settings: source organism: Burkholderia pseudomallei K96243
# HLA-B*39:01 = assay: as above; settings: source organism: Burkholderia pseudomallei K96243
# HLA-B*57:01 [15] = assay: as above; settings: source organism: Burkholderia pseudomallei K96243
# HLA-B*27:03 = assay: as above; settings: source organism: Burkholderia pseudomallei K96243
# HLA-B*46:01 = assay: as above; settings: source organism: Burkholderia pseudomallei K96243
# HLA-B*18:01 [16] = assay: IEDB peptide-MHC binding, purified MHC/direct/fluorescence; filed as Kd, often an IC50 or EC50 that approximates it; ≥ and ≤ were set here for values at or beyond the usual limits of such assays; settings: source organism: Orthohantavirus hantanense
# HLA-B*44:02 = assay: as above
# HLA-B*40:01 = assay: as above
# HLA-B*57:01 [17] = assay: as above
# HLA-A*69:01 = assay: as above
# HLA-A*26:01 [18] = assay: as above; settings: source organism: Giardia lamblia ATCC 50803
# HLA-B*08:01 = assay: as above; settings: source organism: Giardia lamblia ATCC 50803
# HLA-B*15:01 [19] = assay: as above; settings: source organism: Giardia lamblia ATCC 50803
# HLA-A*02:01 [20] = assay: as above; settings: source organism: Giardia lamblia ATCC 50803
# HLA-A*01:01 [21] = assay: as above; settings: source organism: Giardia lamblia ATCC 50803
# HLA-B*07:02 = assay: as above; settings: source organism: Giardia lamblia ATCC 50803
# HLA-B*27:05 = assay: as above; settings: source organism: Giardia lamblia ATCC 50803
# HLA-A*02:12 = assay: as above; settings: source organism: Vibrio cholerae V52
# HLA-A*31:01 [22] = assay: as above; settings: source organism: Giardia lamblia ATCC 50803
# [23] = source organism: Yersinia pestis Antiqua
# [24] = source organism: Zaire ebolavirus
# [25] = source organism: Brucella abortus 2308
# [26] = source organism: Escherichia coli
# [27] = source organism: Marburg virus - Musoke, Kenya, 1980
# [28] = source organism: Bacillus anthracis
# [29] = source organism: Salmonella enterica subsp. enterica serovar Typhi
# [30] = source organism: Burkholderia mallei
# [31] = source organism: Vaccinia virus WR
# [32] = source organism: Yellow fever virus
# [33] = source organism: Vaccinia virus Copenhagen
# [34] = source organism: Burkholderia pseudomallei K96243
# [35] = source organism: Orthohantavirus hantanense
# [36] = source organism: Camelpox virus M-96
# [37] = source organism: Giardia lamblia ATCC 50803
sequence,measurement,setting,value
WIYDPRNQK,Kd,HLA-A*11:01 [1]; [23],375 nM
same,Kd,HLA-A*03:01 [2]; [23],29.4 nM
same,Kd,HLA-A*31:01 [3]; [23],107 nM
VIYRGTTFA,IC50,HLA-A*11:01 [4],38000 nM
same,IC50,HLA-B*15:01 [5]; [24],≥ 70900 nM
same,IC50,HLA-A*02:01 [6]; [24],1530 nM
same,IC50,HLA-A*03:01 [7],4210 nM
same,IC50,HLA-A*24:02; [24],45400 nM
RQMLHEIGR,Kd,HLA-A*11:01 [1]; [25],660 nM
same,Kd,HLA-A*03:01 [2]; [25],3220 nM
same,Kd,HLA-A*31:01 [3]; source organism: Paramagnetospirillum magnetotacticum MS-1,1.17 nM
LMQSLYDWI,Kd,HLA-A*02:01 [8],36.2 nM
same,Kd,HLA-A*24:03; [26],44.1 nM
KAVEKGKNW,Kd,HLA-B*15:17 [9]; [27],17.7 nM
same,Kd,HLA-B*58:01; [27],91.5 nM
RLYNFSFLN,Kd,HLA-A*02:11,≤ 1 nM
same,Kd,HLA-A*03:01 [2]; [28],492 nM
IQYPTAWQS,IC50,HLA-B*15:01 [5]; [24],25700 nM
same,IC50,HLA-A*02:01 [6]; [24],30600 nM
same,IC50,HLA-A*24:02; [24],33500 nM
ATTFARFLY,Kd,HLA-A*03:01 [10]; [29],202 nM
same,Kd,HLA-A*01:01 [11]; [29],19.3 nM
RVYRRRLAQ,Kd,HLA-A*11:01 [1]; [30],≥ 20000 nM
same,Kd,HLA-A*03:01 [2]; [30],323 nM
same,Kd,HLA-A*31:01 [3]; source organism: Burkholderia pseudomallei 1106a,40.5 nM
ISFQQTNAM,IC50,HLA-A*11:01 [4],≥ 125000 nM
same,IC50,HLA-B*15:01 [5]; [24],6160 nM
same,IC50,HLA-A*02:01 [6]; [24],6390 nM
same,IC50,HLA-A*24:02; [24],9810 nM
FLVINRLGA,IC50,HLA-B*15:01 [5]; [31],≥ 86900 nM
same,IC50,HLA-A*02:01 [6]; [31],795 nM
TFAEGVVAF,IC50,HLA-B*15:01 [5]; [24],18400 nM
same,IC50,HLA-A*24:02; [24],213 nM
KVVNRWLFR,Kd,HLA-A*11:01 [1]; [32],4.5 nM
same,Kd,HLA-A*31:01 [3]; [32],1.1 nM
KFHQIEKEF,Kd,HLA-A*24:03; source organism: Influenza A virus (A/swine/Hong Kong/81/1978(H3N2)),0.6 nM
KAIITPIVF,IC50,HLA-B*15:01 [5]; [33],15700 nM
same,IC50,HLA-A*24:02; [33],11100 nM
VSFNQNLEY,Kd,HLA-A*01:01 [11]; source organism: Influenza A virus (A/goose/Guangdong/1/1996(H5N1)),25.9 nM
LMRRFRFTV,Kd,HLA-B*15:17 [12],≥ 20000 nM
same,Kd,HLA-B*18:01 [13],≥ 20000 nM
same,Kd,HLA-A*26:01 [14],≥ 20000 nM
same,Kd,HLA-A*31:01 [3]; [34],262 nM
same,Kd,HLA-B*39:01,≥ 20000 nM
same,Kd,HLA-A*03:01 [10]; [34],≥ 20000 nM
same,Kd,HLA-A*24:03; [34],≥ 20000 nM
same,Kd,HLA-B*57:01 [15],≥ 20000 nM
same,Kd,HLA-B*27:03,≥ 20000 nM
same,Kd,HLA-B*46:01,≥ 20000 nM
WMAPSLTES,IC50,HLA-B*15:01 [5]; [24],11400 nM
same,IC50,HLA-A*02:01 [6]; [24],6450 nM
REINAHEGQ,Kd,HLA-B*18:01 [16],≥ 20000 nM
same,Kd,HLA-B*44:02; [35],≥ 20000 nM
same,Kd,HLA-B*40:01; [35],148 nM
ASDHFVETT,Kd,HLA-A*01:01 [11]; source organism: Escherichia coli APEC O1,≥ 20000 nM
GWTETDSSF,Kd,HLA-A*24:03; source organism: Influenza A virus (A/parrot/Ulster/73(H7N1)),304 nM
KSALNDFDF,Kd,HLA-B*15:17 [9]; [36],29.5 nM
same,Kd,HLA-B*58:01; [36],26.8 nM
same,Kd,HLA-B*57:01 [17]; [36],252 nM
RQRVIPVYQ,IC50,HLA-B*15:01 [5]; [24],6370 nM
KLLQICMWF,Kd,HLA-A*69:01; [37],≥ 20000 nM
same,Kd,HLA-B*58:01; [37],1470 nM
same,Kd,HLA-A*11:01 [1]; [37],≥ 20000 nM
same,Kd,HLA-A*26:01 [18],≥ 20000 nM
same,Kd,HLA-B*08:01,≥ 20000 nM
same,Kd,HLA-B*15:01 [19],16600 nM
same,Kd,HLA-A*02:01 [20],3410 nM
same,Kd,HLA-A*03:01 [2]; [37],≥ 20000 nM
same,Kd,HLA-B*44:02; [37],≥ 20000 nM
same,Kd,HLA-B*57:01 [17]; [37],≥ 20000 nM
same,Kd,HLA-A*01:01 [21],≥ 20000 nM
same,Kd,HLA-B*40:01; [37],≥ 20000 nM
same,Kd,HLA-B*07:02,≥ 20000 nM
same,Kd,HLA-B*27:05,≥ 20000 nM
FHKNMIKTY,IC50,HLA-B*15:01 [5]; source organism: Vaccinia virus,21800 nM
FLILCSVLL,Kd,HLA-A*69:01; source organism: Vibrio cholerae,4180 nM
same,Kd,HLA-A*02:12,7 nM
GLHATFMPK,Kd,HLA-A*11:01 [1]; [28],6.2 nM
same,Kd,HLA-A*03:01 [2]; [28],37.2 nM
same,Kd,HLA-A*31:01 [3]; source organism: Listeria monocytogenes EGD-e,151 nM
EFFDTEPQL,Kd,HLA-A*69:01; [37],≥ 20000 nM
same,Kd,HLA-B*58:01; [37],≥ 20000 nM
same,Kd,HLA-A*11:01 [1]; [37],≥ 20000 nM
same,Kd,HLA-A*26:01 [18],≥ 20000 nM
same,Kd,HLA-B*08:01,≥ 20000 nM
same,Kd,HLA-B*15:01 [19],≥ 20000 nM
same,Kd,HLA-A*31:01 [22],≥ 20000 nM
same,Kd,HLA-A*02:01 [20],≥ 20000 nM
same,Kd,HLA-A*03:01 [2]; [37],≥ 20000 nM
same,Kd,HLA-B*44:02; [37],≥ 20000 nM
same,Kd,HLA-A*01:01 [21],≥ 20000 nM
same,Kd,HLA-B*40:01; [37],2770 nM
same,Kd,HLA-B*07:02,≥ 20000 nM
same,Kd,HLA-B*27:05,≥ 20000 nM
RTAFLRFWL,Kd,HLA-B*15:17 [9]; [26],1.5 nM
ITGLPPTEW,Kd,HLA-B*15:17 [9]; [25],2.3 nM
same,Kd,HLA-B*58:01; [25],24.4 nM
MLASIDLKY,Kd,HLA-A*01:01 [11]; source organism: Influenza A virus (A/swine/Finistere/127/99(H3N2)),427 nM
AQHAPDAAK,Kd,HLA-A*11:01 [1]; [30],64.6 nM
same,Kd,HLA-A*03:01 [2]; [30],2120 nM
same,Kd,HLA-A*31:01 [3]; source organism: Burkholderia mallei SAVP1,172 nM
RMGVQMQRF,Kd,HLA-A*24:03; source organism: Influenza A virus (A/swine/Hannover/1/1981(H1N1)),294 nM
